Assay results from US20180326059A1 (GANYMED PHARMACEUTICALS, published 2018).

Molecular target: Claudin 18 splice variant 2 (CLDN18.2), human (human)
Test: cell-based or functional assay

- IMAB362-mediated ADCC on NUGC-4 cells, EC50 on chemotherapy-pretreated versus untreated target cells: ~0.33 fraction of the EC50 on untreated cells
B1: IMAB362 (antibody, V domains shown)
VH: QVQLQQPGAELVRPGASVKLSCKASGYTFTSYWINWVKQRPGQGLEWIGNIYPSDSYTNYNQKFKDKATLTVDKSSSTAYMQLSSPTSEDSAVYYCTRSWRGNSFDYWGQGTTLTVSS
VL: DIVMTQSPSSLTVTAGEKVTMSCKSSQSLLNSGNQKNYLTWYQQKPGQPPKLLIYWASTRESGVPDRFTGSGSGTDFTLTISSVQAEDLAVYYCQNDYSYPFTFGSGTKLEIKR
modifications: In the in vivo imaging of Example 14 the antibody carried a Dyelight 680 label, site not given; unlabelled in the flow cytometry.
